# Results: PMC9241938
# Tests used:
# [1] = tested on: RpaB (Synechocystis sp. PCC 6803?); assay: EMSA; conditions: EMSA: 12 mM HEPES, 4 mM Tris, 12 mM KCl, 1 mM EDTA, 1 mM EGTA, 12% glycerol, 1 ug poly(dIdC); 3% agarose, 0.5x TBE; pH 8.2 or 5 tested; probe 3.85 pmol …
# [2] = target: cyAbrB1 (Sll0359), N-terminally 6*His-tagged recombinant protein (Synechocystis sp. PCC 6803); assay: native gel or EMSA; native SDS-PAGE (NSDS-PAGE) of the purified recombinant protein; native glycine polyacrylamide gel (15%, SDS omitted), running buffer 50 mM Tris-HCl, 200 mM glycine, 0.0375% SDS, pH 7.3, 4°C
stoichiometry N [2],Substance,Kd [1] [µM]
–,TTTGCCCAATTTGACAATATATTAAGAAATCCTCATCTAACCTGTTTTTCATTGGATAATTAAAACAAGAGGAAAGATCAGGGGGCAGGAAAATAAATTACCTAATACCTAGTCCTGGTTGATAAAACCAGAGGCAGAAAACCTCCCCGTTTTCTCAAACTTGCCCAAAAGACAACTGTTGAGTTTCCCCCATTGGGACGGAGGTTATG (double strand) [PatpT66-5'UTR],5.62
2,"cyAbrB1 (Sll0359), N-terminally 6*His-tagged recombinant protein (natural protein)",–
